Reference: US20140127174A1 (ZEALAND PHARMA A S, published 2014)

Assays:
[1] = target: human glucagon-like peptide 1 receptor (GLP-1-R) (human, UniProt P43220 24-463); experiment: cell-based or functional assay
[2] = target: human glucagon receptor (Glucagon-R) (human, UniProt P47871 26-477); experiment: cell-based or functional assay

Sequence of human glucagon-like peptide 1 receptor (GLP-1-R) (P43220 24-463): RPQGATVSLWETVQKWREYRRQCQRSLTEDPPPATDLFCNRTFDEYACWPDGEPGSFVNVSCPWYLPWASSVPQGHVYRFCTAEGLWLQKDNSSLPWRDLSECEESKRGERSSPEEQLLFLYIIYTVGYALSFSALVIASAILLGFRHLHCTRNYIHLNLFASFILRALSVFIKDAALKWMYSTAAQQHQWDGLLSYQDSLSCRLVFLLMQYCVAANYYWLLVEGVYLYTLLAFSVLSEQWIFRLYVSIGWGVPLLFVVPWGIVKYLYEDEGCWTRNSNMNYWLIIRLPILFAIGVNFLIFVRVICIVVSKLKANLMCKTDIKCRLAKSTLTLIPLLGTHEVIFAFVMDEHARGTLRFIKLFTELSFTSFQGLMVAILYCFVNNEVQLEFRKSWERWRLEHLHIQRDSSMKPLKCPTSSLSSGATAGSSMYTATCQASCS

H-HSQGTFTSDYSLYLDSRRAKDFIEWLERA-NH2 (not fully specified) [L006-0050 (SEQ ID NO: 12)]
EC50 of cAMP formation in HEK293 cells expressing human GLP-1-R (corrected to a purity of 50%) [1]: 170 pM | EC50 of cAMP formation in HEK293 cells expressing human Glucagon-R (corrected to a purity of 50%) [2]: 100 pM
